Measurements taken from US6926883B1, “Group (VII) transition-metal complexes with multidentate aminopolycarboxylate ligands and a kit for producing them” (Mallinckrodt Inc, priority 1999, dated 2005).
Values belong to the compound of their own block, whether it stands above or below them.

Key:
in vivo [1] = test: in vivo; design: species or system Lewis rats; conditions: male, Lewis, rat, iv, 50 uCi, total radioactivity
Description: (§1) These studies were performed to evaluate the biodistribution and imaging potential of these compounds in Lewis rats bearing CA20948 rat pancreatic tumor implants. For each study, six (6) male Lewis rats bearing CA20948 tumor implants were anesthetized with Metofane gas and injected via the jugular vein with 200 μL (using the compounds of Example 2) or 50 μL (using the compound of Example 3) of test article containing ˜50 μCi of activity. The animals were imaged for 100K counts under a gamma camera at 30 minute (n=3) and 4 hours (n=3) post injection after which time they were sacrificed and the following tissues removed for assay: blood, liver, kidneys, muscle, spleen, pancreas, small intestines, adrenals and tumor. The data are presented as % injected dose per gram and % injected dose per whole organ. The comparative data are also represented graphically.

[2] = design: species or system Lewis rats; conditions: rat, in vivo
Description: During the general biodistribution studies, one additional animal per study was ligated to prevent urination prior to injection. The animal was kept anesthetized for 3 hours post injection, and was subsequently sacrificed, urine removed. The volume and activity of the urine was measured, and a sample was analyzed by HPLC using the method described above.

SST-2 Receptors = molecular target: T1, SST-2 Receptors (Rattus norvegicus, UniProt P30680); test: in vivo; assay type: in vivo, Lewis rats; conditions: 350 μg cold Y3-Octreotate 30 minutes prior; three hours post injection
T1 construct: from tissue; host or cells: Lewis rats bearing CA20948 tumor implants
Description: (§2) Two rats for each group were used. Group 1 received 500 μL PBS administered subcutaneously in the nape of the neck 30 minutes prior to the injection of [^99mTc(CO)3(DTPA′-Y^3-Octreotate)]. Group 2 received 350 μg Y^3-Octreotate in 500 μL phosphate buffered saline (PBS) administered subcutaneously in the nape of the neck 30 minutes prior to the injection of [^99mTc(CO)3(DTPA′-Y^3-Octreotate)].
(§3) 30 minutes after injection of the cold peptide or saline control, the animals were anesthetized with Metofane gas and injected with 50 μL (50 μCi) of [^99mTc(CO)3(DTPA′-Y^3-Octreotate)]. At three hours post injection the animals were sacrificed, blood samples taken, and then the rats were scintigraphed for 100K counts (FIG. 3). At the conclusion of the scintigraphy, the animals were necropsied, and the following tissues removed for radioassay: liver, kidneys, muscle, spleen, heart, pancreas, adrenals, and tumor. The data were calculated as % injected dose per gram and % injected dose per whole organ.

in vivo [3] = assay type: in vivo, Lewis rats; conditions: Lewis, rat, in vivo, total radioactivity
Description: as §2, §3

[4] = tested on: CA20948 rat pancreatic tumor implants; test: in vivo; design: species or system Lewis rats
Description: as §1

T1 sequence (P30680 whole entry): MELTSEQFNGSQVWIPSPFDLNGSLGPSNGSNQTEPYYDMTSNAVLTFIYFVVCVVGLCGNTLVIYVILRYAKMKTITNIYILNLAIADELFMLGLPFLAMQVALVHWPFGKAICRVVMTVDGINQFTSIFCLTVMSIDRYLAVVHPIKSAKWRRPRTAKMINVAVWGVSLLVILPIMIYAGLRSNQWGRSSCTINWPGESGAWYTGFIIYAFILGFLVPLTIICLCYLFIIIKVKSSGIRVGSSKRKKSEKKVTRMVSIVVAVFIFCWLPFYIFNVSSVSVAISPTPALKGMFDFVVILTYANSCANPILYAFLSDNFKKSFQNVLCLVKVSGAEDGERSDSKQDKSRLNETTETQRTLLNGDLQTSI

Compound: C[C@@H](O)[C@H](NC(=O)[C@@H]1CSSC[C@H](NC(=O)[C@@H](Cc2ccccc2)NC(=O)CN(CCN(CCN(CC(=O)O)CC(=O)O)CC(=O)O)CC(=O)O)C(=O)N[C@@H](Cc2ccc(O)cc2)C(=O)N[C@H](Cc2c[nH]c3ccccc23)C(=O)N[C@@H](CCCCN)C(=O)N[C@@H]([C@@H](C)O)C(=O)N1)C(=O)O [MP-2138, Tc-99m(CO)3-n-DTPA-Tyr-3-Octreotate, metal not drawn]
tissue uptake at 0.5 h (in vivo [1]; Blood % ID/g): 0.735 ± 0.027 %ID/g
tissue uptake at 4 h (in vivo [1]; Blood % ID/g): 0.218 ± 0.01 %ID/g
tissue uptake at 0.5 h (in vivo [1]; Kidney % ID/g): 5.282 ± 0.014 %ID/g
tissue uptake at 4 h (in vivo [1]; Kidney % ID/g): 5.703 ± 0.052 %ID/g
tissue uptake at 0.5 h (in vivo [1]; Liver % ID/g): 0.567 ± 0.015 %ID/g
tissue uptake at 4 h (in vivo [1]; Liver % ID/g): 0.516 ± 0.034 %ID/g
tissue uptake at 0.5 h (in vivo [1]; Pancreas % ID/g): 1.56 ± 0.11 %ID/g
tissue uptake at 4 h (in vivo [1]; Pancreas % ID/g): 1.76 ± 0.089 %ID/g
tissue uptake at 0.5 h (in vivo [1]; Tumor % ID/g): 0.847 ± 0.078 %ID/g
tissue uptake at 4 h (in vivo [1]; Tumor % ID/g): 0.822 ± 0.13 %ID/g
tissue to tissue ratio at 0.5 h (in vivo [1]; Tumor/Blood): 1.1
tissue to tissue ratio at 4 h (in vivo [1]; Tumor/Blood): 3.7
tissue to tissue ratio at 0.5 h (in vivo [1]; Tumor/Kidney): 0.14
tissue to tissue ratio at 4 h (in vivo [1]; Tumor/Kidney): 0.14
tissue to tissue ratio at 0.5 h (in vivo [1]; Tumor/Liver): 1.3
tissue to tissue ratio at 4 h (in vivo [1]; Tumor/Liver): 1.6

Reduction of uptake in the adrenals in somatostatin receptor-blocked animals (SST-2 Receptors): 81%
Reduction of uptake in the pancreas in somatostatin receptor-blocked animals (SST-2 Receptors): 95%
Reduction of uptake in the tumor in somatostatin receptor-blocked animals (SST-2 Receptors): 90%
Compound: C[C@@H](O)[C@H](NC(=O)[C@@H]1CSSC[C@H](NC(=O)[C@@H](Cc2ccccc2)NC(=O)CC(C(=O)O)N(CCN(CC(=O)O)CC(=O)O)CCN(CC(=O)O)CC(=O)O)C(=O)N[C@@H](Cc2ccc(O)cc2)C(=O)N[C@H](Cc2c[nH]c3ccccc23)C(=O)N[C@@H](CCCCN)C(=O)N[C@@H]([C@@H](C)O)C(=O)N1)C(=O)O (stereo partly drawn) [MP-2148, Tc-99m(CO)3-DTPA′-Tyr-3-Octreotate, metal not drawn]
Activity of Urine [2]: 10.4 μCi
Metabolism: state of compound in urine by HPLC analysis [2]: essentially intact
Volume of Urine [2]: 1.5 mL
tissue uptake dose at 3 h (in vivo [3]; 50 uCi, Adrenals % ID/organ): 0.042 %ID
tissue uptake at 3 h (in vivo [3]; 50 uCi, Blood % ID/g): 0.115 %ID/g
tissue uptake dose at 3 h (in vivo [3]; 50 uCi, Blood % ID/organ): 1.44 %ID
tissue uptake at 3 h (in vivo [3]; 50 uCi, Heart % ID/g): 0.062 %ID/g
tissue uptake dose at 3 h (in vivo [3]; 50 uCi, Heart % ID/organ): 0.049 %ID
tissue uptake at 3 h (in vivo [3]; 50 uCi, Kidneys % ID/g): 2.98 %ID/g
tissue uptake dose at 3 h (in vivo [3]; 50 uCi, Kidneys % ID/organ): 6.82 %ID
tissue uptake at 3 h (in vivo [3]; 50 uCi, Liver % ID/g): 0.236 %ID/g
tissue uptake dose at 3 h (in vivo [3]; 50 uCi, Liver % ID/organ): 2.35 %ID
tissue uptake at 3 h (in vivo [3]; 50 uCi, Muscle % ID/g): 0.058 %ID/g
tissue uptake dose at 3 h (in vivo [3]; 50 uCi, Muscle % ID/organ): 6.6 %ID
tissue uptake at 3 h (in vivo [3]; 50 uCi, Pancreas % ID/g): 0.916 %ID/g
tissue uptake dose at 3 h (in vivo [3]; 50 uCi, Pancreas % ID/organ): 0.762 %ID
tissue uptake at 3 h (in vivo [3]; 50 uCi, Spleen % ID/g): 0.081 %ID/g
tissue uptake dose at 3 h (in vivo [3]; 50 uCi, Spleen % ID/organ): 0.044 %ID
tissue uptake at 3 h (in vivo [3]; 50 uCi, Tumor % ID/g): 1.11 %ID/g
tissue uptake dose at 3 h (in vivo [3]; 50 uCi, Tumor % ID/organ): 5.18 %ID
tissue uptake dose at 3 h (in vivo [3]; Adrenals % ID/organ): 0.008 %ID
tissue uptake dose at 3 h (in vivo [3]; Blood % ID/organ): 1.59 %ID
tissue uptake dose at 3 h (in vivo [3]; Heart % ID/organ): 0.057 %ID
tissue uptake dose at 3 h (in vivo [3]; Kidneys % ID/organ): 6.24 %ID
tissue uptake dose at 3 h (in vivo [3]; Liver % ID/organ): 2.61 %ID
tissue uptake dose at 3 h (in vivo [3]; Muscle % ID/organ): 6.93 %ID
tissue uptake dose at 3 h (in vivo [3]; Pancreas % ID/organ): 0.052 %ID
tissue uptake dose at 3 h (in vivo [3]; Spleen % ID/organ): 0.042 %ID
tissue uptake dose at 3 h (in vivo [3]; Tumor % ID/organ): 0.493 %ID
Amount of activity in the liver and GI tract compared to [99mTc(CO)3(His-Y3-Octreotate)] [4]: significantly less
Biodistribution characteristics vs iso-DTPA-Y3-Octreotate and n-DTPA-Y3-Octreotate [4]: better biodistribution characteristics
Hepatobiliary uptake and clearance compared to [99mTc(CO)3(His-Y3-Octreotate)] [4]: less hepatobiliary uptake and clearance
tissue uptake at 0.5 h (in vivo [1]; Blood % ID/g): 0.471 ± 0.035 %ID/g
tissue uptake at 4 h (in vivo [1]; Blood % ID/g): 0.114 ± 0.005 %ID/g
tissue uptake at 4 h (in vivo [1]; Blood (% ID/g at 4 hours p.i.)): 0.083 %ID/g
tissue uptake at 0.5 h (in vivo [1]; Kidney % ID/g): 2.14 ± 0.12 %ID/g
tissue uptake at 4 h (in vivo [1]; Kidney % ID/g): 3.14 ± 0.08 %ID/g
tissue uptake at 4 h (in vivo [1]; Kidney (% ID/g at 4 hours p.i.)): 3.27 %ID/g
tissue uptake at 0.5 h (in vivo [1]; Liver % ID/g): 0.494 ± 0.011 %ID/g
tissue uptake at 4 h (in vivo [1]; Liver % ID/g): 0.363 ± 0.022 %ID/g
tissue uptake at 4 h (in vivo [1]; Liver (% ID/g at 4 hours p.i.)): 0.19 %ID/g
tissue uptake at 0.5 h (in vivo [1]; Pancreas % ID/g): 1.15 ± 0.032 %ID/g
tissue uptake at 4 h (in vivo [1]; Pancreas % ID/g): 0.956 ± 0.054 %ID/g
tissue uptake at 4 h (in vivo [1]; Pancreas (% ID/g at 4 hours p.i.)): 0.99 %ID/g
tissue uptake at 0.5 h (in vivo [1]; Tumor % ID/g): 0.793 ± 0.041 %ID/g
tissue uptake at 4 h (in vivo [1]; Tumor % ID/g): 0.769 ± 0.069 %ID/g
tissue uptake at 4 h (in vivo [1]; Tumor (% ID/g at 4 hours p.i.)): 1.06 %ID/g
tissue to tissue ratio at 0.5 h (in vivo [1]; Tumor/Blood): 1.7
tissue to tissue ratio at 4 h (in vivo [1]; Tumor/Blood): 6.7
tissue to tissue ratio at 0.5 h (in vivo [1]; Tumor/Kidney): 0.37
tissue to tissue ratio at 4 h (in vivo [1]; Tumor/Kidney): 0.25
tissue to tissue ratio at 0.5 h (in vivo [1]; Tumor/Liver): 1.6
tissue to tissue ratio at 4 h (in vivo [1]; Tumor/Liver): 2.1

Compound: Tc-99m(CO)3-His-Tyr-3-Octreotate [MP-2377, reference compound]
Activity of Urine [2]: 5.8 μCi
Metabolism: state of compound in urine by HPLC analysis [2]: essentially intact
Volume of Urine [2]: 1.5 mL
Blood (% ID/g at 4 hours p.i.) [4]: 0.03 % ID/g
Kidney (% ID/g at 4 hours p.i.) [4]: 1.64 % ID/g
Liver (% ID/g at 4 hours p.i.) [4]: 0.28 % ID/g
Pancreas (% ID/g at 4 hours p.i.) [4]: 2.67 % ID/g
Tumor (% ID/g at 4 hours p.i.) [4]: 1.00 % ID/g

Compound: Tc-99m(CO)3-iso-DTPA-Tyr-3-Octreotate [MP-2423]
Tumor/Liver [4]: 3
